Changes are numbered by the printed parent chain. Blank lines part the entries; values can stand above or below the molecule they belong to.
Legend:
[1] = molecular target: integrin αvβ6 ectodomain (immobilized) (human, UniProt P06756 31-992; P18564 22-709)
[2] = molecular target: T1, recombinant human integrin αvβ8 ectodomain (human, UniProt P06756 31-992; P26012 43-681); assay: cell-based or functional assay
[3] = molecular target: T1, recombinant human integrin αvβ8 …; assay: cell-based or functional assay; remark: listed apart in the source
[4] = molecular target: T1, recombinant human integrin αvβ8 …; assay: cell-based or functional assay; remark: listed apart in the source
[5] = molecular target: T1, recombinant human integrin αvβ8 …; assay: cell-based or functional assay; remark: listed apart in the source
[6] = molecular target: T1, recombinant human integrin αvβ8 …; assay: MFI against concentration, fit y = m1 + m2*M0/(m3+M0), m3 = KD; paragraph 50 and paragraph 227 give these KD values for the yeast scFv with soluble αvβ8, the legend of FIG. 17 speaks of IgG4 on CHO αvβ8 cells
[7] = molecular target: T1, recombinant human integrin αvβ8 …; assay: yeast-displayed scFv titrated with αvβ8 ectodomain, flow cytometry, hyperbolic fit
Description: After induction and screening of the pooled transformants for scFV expression using anti-V5 (clone SV5), the avb8 ectodomain was incubated with the yeast pool, washed and scFV which bound to αvβ8 were detected using anti-human αv (clone 8β8). After multiple rounds of selection by sorting yeast stained under conditions of increasing stringency (Low Ag concentration, short Kon and long Koff), individual clones were isolated, sequenced and tested for binding affinity. Shown are the sequences of VH and VL pairs enriched in the library. The binding affinities of representative yeast clones was determined using a least-squares fit model based on the hyperbolic equation y=m1+m2*m0/(m3+m0), where y=MFI at different αvβ8 concentrations; m0=αvβ8 concentration; m1=MFI with no αvβ8; m2=MFI at saturation; and m3=KD. […]
We then created a scFV yeast display library (Library 3) with degenerate positions coding for novel amino acids (i.e. not in germline human or mouse Ig sequence databases), back mutations to mouse from clone H1.1, as well as final humanization of Fr4 VH and VL based on the human germline (SEQ ID NO: 29, 30 and 32). […] After induction and screening of the pooled transformants for scFV expression using anti-V5 (clone SV5), the αvβ8 ectodomain was incubated with the yeast pool, washed and scFV which bound to αvβ8 were detected using anti-human αv (clone 8β8). […]

[8] = molecular target: T2, human integrin αvβ8 on transfected cells (CHO cells stably transfected; HEK 293 cells stably expressing αvβ8) (human, UniProt P06756 31-1048; P26012 43-769); assay: flow cytometry on CHO cells expressing human αvβ8 fixed in 2% buffered formalin for 15 min, antibody titrated, hyperbolic least-squares fit (m3 = KD); curves on D00025 [Cont.]
T2 construct: whole, on cells; also called CHO αvβ8 cells; αvβ8 expressing CHO cells
T2 sequence (P06756 31-1048, chain 1 of 2): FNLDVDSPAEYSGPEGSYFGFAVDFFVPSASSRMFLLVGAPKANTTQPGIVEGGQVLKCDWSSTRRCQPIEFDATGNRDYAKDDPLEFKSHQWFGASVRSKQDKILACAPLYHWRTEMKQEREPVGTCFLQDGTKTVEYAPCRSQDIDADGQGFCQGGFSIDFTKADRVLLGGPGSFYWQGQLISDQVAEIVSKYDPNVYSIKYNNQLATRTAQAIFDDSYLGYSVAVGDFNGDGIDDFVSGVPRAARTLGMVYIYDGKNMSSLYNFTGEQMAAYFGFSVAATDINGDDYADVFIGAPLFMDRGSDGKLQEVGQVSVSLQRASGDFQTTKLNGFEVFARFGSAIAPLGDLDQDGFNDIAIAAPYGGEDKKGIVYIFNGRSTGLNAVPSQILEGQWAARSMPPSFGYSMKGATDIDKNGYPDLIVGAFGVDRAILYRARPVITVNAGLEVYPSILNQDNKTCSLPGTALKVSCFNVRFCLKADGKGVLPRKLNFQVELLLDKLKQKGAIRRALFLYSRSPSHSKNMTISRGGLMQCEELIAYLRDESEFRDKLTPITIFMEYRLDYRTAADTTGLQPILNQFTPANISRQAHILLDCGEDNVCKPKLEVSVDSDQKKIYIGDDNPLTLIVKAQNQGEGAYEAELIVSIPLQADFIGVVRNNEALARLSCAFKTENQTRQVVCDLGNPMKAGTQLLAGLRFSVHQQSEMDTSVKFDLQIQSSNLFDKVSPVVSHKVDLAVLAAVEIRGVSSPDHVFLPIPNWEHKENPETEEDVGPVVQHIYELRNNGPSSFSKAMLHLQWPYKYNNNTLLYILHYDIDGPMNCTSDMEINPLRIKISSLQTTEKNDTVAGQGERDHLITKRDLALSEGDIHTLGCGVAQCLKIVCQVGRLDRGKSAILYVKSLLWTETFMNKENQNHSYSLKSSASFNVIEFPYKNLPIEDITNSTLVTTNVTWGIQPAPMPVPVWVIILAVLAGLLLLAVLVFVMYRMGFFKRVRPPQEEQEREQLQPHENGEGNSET
T2 sequence (P26012 43-769, chain 2 of 2): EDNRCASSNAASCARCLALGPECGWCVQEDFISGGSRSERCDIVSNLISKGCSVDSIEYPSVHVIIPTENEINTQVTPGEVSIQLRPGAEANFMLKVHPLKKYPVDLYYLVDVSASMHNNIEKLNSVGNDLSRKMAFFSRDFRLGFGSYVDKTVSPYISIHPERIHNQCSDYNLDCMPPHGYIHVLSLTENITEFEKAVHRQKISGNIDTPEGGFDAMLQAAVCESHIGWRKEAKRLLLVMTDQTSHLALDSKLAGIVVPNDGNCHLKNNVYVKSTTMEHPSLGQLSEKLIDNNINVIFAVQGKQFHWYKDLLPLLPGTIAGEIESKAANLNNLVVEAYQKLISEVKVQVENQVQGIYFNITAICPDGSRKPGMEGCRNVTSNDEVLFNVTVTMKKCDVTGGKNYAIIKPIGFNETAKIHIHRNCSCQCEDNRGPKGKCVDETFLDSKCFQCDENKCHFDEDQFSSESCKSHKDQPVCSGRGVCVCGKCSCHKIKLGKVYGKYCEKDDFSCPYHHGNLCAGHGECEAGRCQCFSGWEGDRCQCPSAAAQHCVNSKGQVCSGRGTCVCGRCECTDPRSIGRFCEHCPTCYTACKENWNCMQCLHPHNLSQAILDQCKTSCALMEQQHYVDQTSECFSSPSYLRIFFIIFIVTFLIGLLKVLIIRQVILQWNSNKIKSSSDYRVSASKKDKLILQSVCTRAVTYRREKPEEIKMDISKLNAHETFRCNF
Description: (§1) FIG. 17: Characterization of cell surface binding of humanized affinity optimized anti-αvβ8 antibodies. The cell surface binding affinities of H4C8, H4G9, H4C10, H4G8 compared to HuC6D4F12 expressed as IgG4 (S228P to prevent arm exchange, R409K and L445P to reduce aggregation and to promote stability). […] Cell surface affinity was determined using the least-squares fit model based on the hyperbolic equation y=m1+m2*m0/(m3+m0), where y=MFI at different avb8 concentrations; m0=αvβ8 concentration; m1=MFI with no αvβ8; m2=MFI at saturation; and m3=KD.
(§2) FIG. 18: Binding characteristics of H4C8 of formalin fixed αvβ8 compared to HuC6D4F12 or ADWA11 2.4 (from Pat no. US2020/0079855 A1). CHO αvβ8 expressing cells were fixed in 2% buffered formalin in PBS for 15 min at RT and then stained at the indicated concentrations as described in FIG. 17. The binding affinities to unfixed or formalin fixed cells is shown. Cell surface affinity was determined using the least-squares fit model based on the hyperbolic equation y=m1+m2*m0/(m3+m0), where y=MFI at different αvβ8 concentrations; m0=αvβ8 concentration; m1=MFI with no αvβ8; m2=MFI at saturation; and m3=KD.

[9] = molecular target: T2, human integrin αvβ8 on transfected …; assay: flow cytometry on unfixed CHO cells expressing human αvβ8, antibody titrated, hyperbolic least-squares fit (m3 = KD); curves on D00025 [Cont.]
Description: as §1, §2

[10] = molecular target: T1, recombinant human integrin αvβ8 …; assay: KinExA; antibody format and antigen form not stated
[11] = molecular target: T1, recombinant human integrin αvβ8 …; assay: cell-based or functional assay; remark: listed apart in the source

T1 sequence (P06756 31-992 limits assumed, chain 1 of 2): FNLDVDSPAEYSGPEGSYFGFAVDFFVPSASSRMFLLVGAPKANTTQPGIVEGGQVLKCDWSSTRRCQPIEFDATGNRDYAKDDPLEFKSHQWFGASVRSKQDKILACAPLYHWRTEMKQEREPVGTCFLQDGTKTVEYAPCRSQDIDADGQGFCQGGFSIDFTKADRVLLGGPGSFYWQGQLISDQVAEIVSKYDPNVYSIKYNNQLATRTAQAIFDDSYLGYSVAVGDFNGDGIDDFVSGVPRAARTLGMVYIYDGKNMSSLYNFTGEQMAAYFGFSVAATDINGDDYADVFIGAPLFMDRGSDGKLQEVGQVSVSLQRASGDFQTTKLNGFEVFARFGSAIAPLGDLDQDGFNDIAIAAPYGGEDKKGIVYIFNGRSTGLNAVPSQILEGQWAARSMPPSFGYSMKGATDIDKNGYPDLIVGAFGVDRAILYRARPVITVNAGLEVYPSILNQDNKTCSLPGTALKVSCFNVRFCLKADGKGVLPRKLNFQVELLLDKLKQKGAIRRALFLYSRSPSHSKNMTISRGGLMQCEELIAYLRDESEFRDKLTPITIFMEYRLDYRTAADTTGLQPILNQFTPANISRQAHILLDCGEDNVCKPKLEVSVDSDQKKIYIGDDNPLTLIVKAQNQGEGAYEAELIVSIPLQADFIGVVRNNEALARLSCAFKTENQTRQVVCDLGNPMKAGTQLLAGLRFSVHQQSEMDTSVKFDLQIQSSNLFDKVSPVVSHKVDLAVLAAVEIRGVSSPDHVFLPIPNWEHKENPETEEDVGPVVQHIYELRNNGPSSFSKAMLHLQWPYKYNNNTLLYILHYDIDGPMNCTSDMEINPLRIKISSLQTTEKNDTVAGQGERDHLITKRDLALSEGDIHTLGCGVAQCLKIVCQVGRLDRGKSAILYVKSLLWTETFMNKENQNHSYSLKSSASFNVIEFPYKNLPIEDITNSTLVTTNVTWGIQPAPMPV
T1 sequence (P26012 43-681 limits assumed, chain 2 of 2): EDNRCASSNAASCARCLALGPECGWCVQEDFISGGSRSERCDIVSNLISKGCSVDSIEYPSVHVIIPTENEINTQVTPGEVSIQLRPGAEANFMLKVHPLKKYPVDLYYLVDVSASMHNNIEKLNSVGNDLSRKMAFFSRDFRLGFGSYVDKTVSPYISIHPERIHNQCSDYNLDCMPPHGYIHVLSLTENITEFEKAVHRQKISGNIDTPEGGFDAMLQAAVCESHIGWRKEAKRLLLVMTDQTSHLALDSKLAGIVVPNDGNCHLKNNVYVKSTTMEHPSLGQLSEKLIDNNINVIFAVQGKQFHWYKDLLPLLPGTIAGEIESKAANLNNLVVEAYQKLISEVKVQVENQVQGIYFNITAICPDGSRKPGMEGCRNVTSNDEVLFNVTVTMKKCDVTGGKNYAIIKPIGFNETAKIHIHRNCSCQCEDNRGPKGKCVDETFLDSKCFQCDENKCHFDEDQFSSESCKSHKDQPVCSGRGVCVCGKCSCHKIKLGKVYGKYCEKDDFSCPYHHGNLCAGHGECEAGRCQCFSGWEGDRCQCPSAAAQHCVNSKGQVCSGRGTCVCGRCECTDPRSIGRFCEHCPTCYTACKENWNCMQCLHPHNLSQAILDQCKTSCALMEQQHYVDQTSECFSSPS
integrin αvβ6 ectodomain (immobilized), sequence (P06756 31-992, chain 1 of 2): as the sequence (P06756 31-992 limits assumed, chain 1 of 2) above
integrin αvβ6 ectodomain (immobilized), sequence (P18564 22-709, chain 2 of 2): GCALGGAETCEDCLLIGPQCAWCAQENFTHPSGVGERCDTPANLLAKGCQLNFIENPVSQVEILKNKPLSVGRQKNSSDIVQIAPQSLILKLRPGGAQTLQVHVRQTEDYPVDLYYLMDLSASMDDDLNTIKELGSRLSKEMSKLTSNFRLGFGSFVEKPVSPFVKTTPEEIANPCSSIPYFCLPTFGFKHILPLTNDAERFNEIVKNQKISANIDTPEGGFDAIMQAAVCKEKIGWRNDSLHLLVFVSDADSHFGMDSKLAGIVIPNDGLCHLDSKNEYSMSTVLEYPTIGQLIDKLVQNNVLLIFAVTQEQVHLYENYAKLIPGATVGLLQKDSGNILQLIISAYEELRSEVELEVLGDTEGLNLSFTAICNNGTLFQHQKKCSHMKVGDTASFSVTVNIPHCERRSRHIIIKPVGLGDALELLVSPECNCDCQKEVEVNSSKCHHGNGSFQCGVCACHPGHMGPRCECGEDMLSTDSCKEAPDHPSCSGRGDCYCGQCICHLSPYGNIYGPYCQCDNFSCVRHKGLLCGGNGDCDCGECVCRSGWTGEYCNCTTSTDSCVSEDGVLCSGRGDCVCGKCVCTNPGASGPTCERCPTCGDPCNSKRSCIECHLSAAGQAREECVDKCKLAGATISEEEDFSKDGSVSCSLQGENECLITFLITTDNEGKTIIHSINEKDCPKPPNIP

B2: HuF12 scFv displayed on yeast (scFv, V domains shown)
VH: QIQLVQSGAEVKKPGASVKISCKASGYTFTKYSMHWVRQAPGQGLEWVARINTETGEPTFADDFRGRFTVTLDTSTSTAYLEIRSLRSDDTAVYFCAIFYYGRDTWGQGTTLTVSS
VL: EIVMTQSPATLSVSPGERVTMSCKSSQSLLHSRSRKNYLAWYQQKPGQAPRLLIYWASTRESGVPARFSGSGSGTEFTLTISSVQSEDFAVYYCKQSYNLLSFGQGTVLEIKR
notes: scFv in vector pYD4 on yeast; also called HuC6D4F12 scFV
Kd [6]: 6.05 nM
Kd [7]: 6.7 nM

B3: HuC6D4F12 (format not stated) (antibody, V domains shown)
VH: B2 VH
VL: B2 VL
notes: also called HuF12; huF12
Kd [8]: 6.4 nM
Kd [9]: 2.6 nM
Kd [10]: 0.00236 nM

B4: H4C8 scFv displayed on yeast (scFv, V domains shown)
VH: QVQLVQSGAEVKKPGASVKVSCKVSGYTLTRQSMHWVRQAPGKGLEWMGRINTETGEPTYAQKFQGRVTMTQDTSTDTAYMELSSLRSEDTAVYFCAIFYYGRDTWGQGTTVTVSS
VL: B2 VL with M21L, K24R, S62T, V84L, V108K, L109V
notes: scFv in pYD4 on yeast
Kd [6]: 3.76 nM
Kd [7]: 3.8 nM

Now from value to molecule:

ED50 of the inhibition of αvβ6-mediated TGF-β activation (immobilized human αvβ6, TMLC GARP/L-TGF-β reporter cells) [1]: 0.22 µg/mL
Molecule: 3G9 (anti-β6), mouse IgG2a (antibody)

EC50 of inhibition of αvβ8-mediated TGF-β activation [2]: 200 nM
IC50 of the inhibition of TGF-β activation (TMLC GARP/TGF-β1 reporter cells on αvβ8-coated wells) [3]: 0.0922 µg/mL
ED50 of the inhibition of αvβ8-mediated TGF-β activation (immobilized αvβ8, TMLC GARP/L-TGF-β reporter cells) [4]: 0.02 µg/mL
IC50 (read off the curve) [5]: ~0.3 µg/mL
B1: HuF12 IgG2a (antibody)
heavy: QIQLVQSGAEVKKPGASVKISCKASGYTFTKYSMHWVRQAPGQGLEWVARINTETGEPTFADDFRGRFTVTLDTSTSTAYLEIRSLRSDDTAVYFCAIFYYGRDTWGQGTTLTVSSASTKGPSVFPLAPSSKSTSGGTAALGCLVKDYFPEPVTVSWNSGALTSGVHTFPAVLQSSGLYSLSSVVTVPSSSLGTQTYICNVNHKPSNTKVDKKIVPRDCGCKPCICTVPEVSSVFIFPPKPKDVLTITLTPKVTCVVVDISKDDPEVQFSWFVDDVEVHTAQTQPREEQFNSTFRSVSELPIMHQDWLNGKEFKCRVNSAAFPAPIEKTISKTKGRPKAPQVYTIPPPKEQMAKDKVSLTCMITDFFPEDITVEWQWNGQPAENYKNTQPIMDTDGSYFVYSKLNVQKSNWEAGNTFTCSVLHEGLHNHHTEKSLSHSPGK
VL: B2 VL

Kd [8]: 56 nM
Kd [9]: 20 nM
EC50 of the inhibition of αvβ8-mediated TGF-β activation (TMLC GARP/TGF-β luciferase reporter cells on αvβ8-coated wells) [11]: 274 µg/mL
B5: ADWA11 2.4 antibody (from US2020/0079855 A1) (antibody, V domains shown)
VH: EVQLVESGGGLVQPGGSLRLSCAASGFNIKDYYMNWVRQAPGKGLEWVGWIDPDQGNTIYEPKFQGRFTISADTSKNSAYLQMNSLRAEDTAVYYCARRLLMDYWGQGTLVTVSS
VL: DIQMTQSPSSLSASVGDRVTITCRSTKSLSHFNGNTYLFWYQQKPGKAPKRLIYYMSSLASGVPSRFSGSGSGTDFTLTISSLQPEDFATYYCQQSLEYPFTFGGGTKVEIKR
